Tested on: MS2 coat protein
Assay: apparent KD of MS2 coat protein; designed switch direction (-1 OFF switch, 1 ON switch): -1; higher = weaker reporter binding
Outline: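 The buffer was Tris-HCl pH 7.5 with KCl, MgCl2, BSA, DTT, tRNA and Tween-20. In it, SNAP-549-labelled MS2 coat protein was titrated in doubling steps from 0.7 or 1.5 nM to 3 µM over chip-bound RNA switches transcribed by stalled E. coli RNA polymerase on Illumina chips. Apparent KD is the per-design median over clusters of curve fits to normalised fluorescence.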

[1] = Eterna round: R95, input ligand: microRNA oligo, concentration not stated
[2] = Eterna round: R95, input ligand: FMN 200 uM
[3] = Eterna round: R95, input ligand: none
[4] = input ligand: microRNA oligo, concentration not stated

| Sequence | apparent KD of MS2 coat protein [1] [nM] | apparent KD of MS2 coat protein [2] [nM] | apparent KD of MS2 coat protein [3] [nM] | apparent KD of MS2 coat protein (input ligand: FMN 200 uM) [nM] | apparent KD of MS2 coat protein (input ligand: none) [nM] | apparent KD of MS2 coat protein [4] [nM] |
| --- | --- | --- | --- | --- | --- | --- |
| CCAAGCUGUGUGAGGAUAUGCUGAACCUUGGUUCAGCAGAAGGCACAUGAGGAUCACCCAUGUGAAAAGCUUGG [Mat - Exclusion 4 - JL Mod - D95] (puzzle: Brourd's mod of Exclusion 4) | 15.3 | – | – | – | – | – |
| CACAAGCUUUUUUGUUGCUUUUUAGUUGGUGUGUGAUUUACAUGAGGAUCACCCAUGUUAUUGAUGCUCGAUCUUUU [JR_SV3TOV2_Sub082] (puzzle: Sensor v3, turn-off variant 2) | 143 | 71.1 | 97.3 | – | – | – |
| UUCCAACAUGAGGAUCACCCAUGUCAGGAUAUGCGACCUCCACCACCAACCUCACCUCGCAGAAGGGACACACC [Mod-Cyanosaur/default-title] (Eterna round: R97, puzzle: Exclusion 1) | – | – | – | 24.2 | 23.7 | – |
| AUACCACGAGGAUAUCGUCUCUCCCACAUGAGGAUCACCCAUGUUAUCCAUGUUUCGUUUCGAGAAGGCGUGGGUU [JR_E5_Sub072] (puzzle: Exclusion 5) | 58.7 | – | – | – | – | – |
| GGACAGUCAGGAUAUACAUGAGGAUCACCCAUGUUGAGAUGUGAAAGGGCGGGAGUAGGUAGAAGGGACGAGAG [JR_Exclu3_Sub040] (puzzle: Exclusion 3) | 23.2 | – | – | – | – | – |
| UACAAGCUUUGGCGAUCCUACAUGAGGAUCACCCAUGUGGGCCCGCCAGAGGCGGGCCCAUUUGCCCGUCUUGUGAA [Energy optimization 2] (Eterna round: R97, puzzle: Sensor, turn-off variant 1) | – | – | – | 16.3 | 16.3 | – |
| ACUUAUAGAGGAUAUACAGUUAAUUACAUGAGGAUCACCCAUGUUCUUCAAUGUAUAUAAGUAGAAGGCUAAGAAA [Mat - Exclusion 5 - Eli Mod - D5] (Eterna round: R97, puzzle: Exclusion 5) | – | – | – | 58 | 13.5 | – |
| UUGAAGUCGUCAGGAUAUAGAUUUAAUGUCAUGCGUAUGUUCUUACAUGAGGAUCACCCAUGUCGCUAGAAGGGACUAUAGAUU [JR_ExcNG2_Sub008] (Eterna round: R96, puzzle: Exclusion NG 2) | – | – | – | 54.6 | 45.1 | 35.1 |
| CCGCCGCAAGGAUAUACUUGCGGUGAUGUUCGAGUUCUUCUACUUGAGGAUCACCCAAGUAGAAGGUGCAAAAC [jl-ex2.4.59 ViennaUCT mod] (Eterna round: R97, puzzle: Exclusion 2) | – | – | – | 13 | 12.5 | – |
| CCGAUAAUGUAGGAUAUCGUAUCGGAAACGAUACGAGAAGGACAAACAUGAGGAUCACCCAUGUUCCUUAACGG [Mat - Exclusion 6 - Eli Mod - D73] (puzzle: Exclusion 6) | 15 | – | – | – | – | – |
| ACAUGAGGAUCACCCAUGUCAGGCAGGUCCACUCCGGCUGUUGAGGAUAUAGCCCGGUAUCCGCGCUAGAAGGUGAGGGCCGGC [Aenatbe mod 26] (Eterna round: R96, puzzle: Exclusion NG 3) | – | – | – | 15.3 | 21.6 | 15.7 |
| AAGAAACAUGAGGAUCACCCAUGUGAGGAUAUGAAAAAGAAAAUAAAAUAAAUAAGAAUCAGAAGGCACAAAGG [Mat - Mod of Hog D5] (puzzle: Exclusion 1) | 45.5 | 40.6 | 40.2 | – | – | – |
| UCUCGCAGGCAAGGAUAUCCUACAUUGUUCUGGCCCGGGCAUGUUACAUGAGGAUCACCCAUGUGGGAGAAGGUGCGCCACGGC [Design 33] (Eterna round: R96, puzzle: Exclusion NG 2) | – | – | – | 196 | 100 | 175 |
| CAUACACAUGAGGAUCACCCAUGUGAGGAUAUGCGUACGUUGUCCGUAGGCGACGUGCGCAGAAGGCGCAAGGU [JL-ex1-3.17 Eli mod] (puzzle: Exclusion 1) | 50.4 | – | – | – | – | – |
| GAAUACAAGUAAAGAUCCUACAUGAGGAUCACCCAUGUGCUCGUCUUGUAAAGUACUAUCACGAAAGUGAUAGUACA [Mat - Sensor v3 - turn-off var 1 - Eli Mod - D88] (puzzle: Sensor v3, turn-off variant 1) | 159 | 53.8 | 47.1 | – | – | – |
| CCUCUUGGGCAAGGAUAUCCUGCGCGGUUCCGGCUCGUGUCUGUCACAUGAGGAUCACCCAUGUGGGAGAAGGUGCCUGCGGUC [Design 79] (Eterna round: R96, puzzle: Exclusion NG 2) | – | – | – | 16.3 | 16.5 | 11.8 |
| ACAGUACAUGAGGAUCACCCAUGUGAGGAUAUAGUAGUAUGGGAGACCAUACUAAAGACUAGAAGGCGCGGGCA [Exclusion 1 S1] (Eterna round: R97, puzzle: Exclusion 1) | – | – | – | 43.6 | 67 | – |

| Sequence | apparent KD of MS2 coat protein [1] [nM] | apparent KD of MS2 coat protein [2] [nM] | apparent KD of MS2 coat protein [3] [nM] | apparent KD of MS2 coat protein (input ligand: FMN 200 uM) [nM] | apparent KD of MS2 coat protein (input ligand: none) [nM] | apparent KD of MS2 coat protein [4] [nM] |
| --- | --- | --- | --- | --- | --- | --- |
| UGUACGAUGCGUGCUGACAUGCGUCGUGCAGCAGGUUUUACAUGAGGAUCACCCAUGUCCUCACUUGCUCGUCUUGU (puzzle: Sensor v3, turn-off variant 2) | 187 | 257 | 279 | – | – | – |
| UGUUGUCGCGUAGGAUAUGGCCAACAGGCCCUAGGAUAUGCGAAAGCAGAAGGAGCGCCAACAGGCGAGAAGGACGGGACAACU [pwkr exNG2 2xF7 2xFMN.17] (Eterna round: R96, puzzle: Exclusion NG 2) | – | – | – | 20.6 | 359 | 13.6 |
| ACGUGAUAUCUGUCGGUGGACAUGAGGAUCACCCAUGUAAGCUUUUCGCUCGUCUUAUAACCCGGUGACAGACCUUC [Edraatis] (puzzle: Sensor v3, turn-off variant 1) | 417 | 33.7 | 48 | – | – | – |
| UUAAAUCAUGUAGGAUAUGCUUUGCGAAGCGAGGCAGAAGGACAUGAGGAUCACCCAUGUGCUAGCGUCCGCGUACGGAUGCAA [Mat - Exclusion NG 1 - Mod of JL - D61] (Eterna round: R96, puzzle: Exclusion NG 1) | – | – | – | 166 | 83 | 57.3 |
| CUUUUGUGAGGAUAUUAGUAGUAAAUAAAUAAAAUUACUAUUGAGAAGGCACAUGAGGAUCACCCAUGUUCCUC [salish99_ex4_r3_064] (puzzle: Exclusion 4) | 30.3 | – | – | – | – | – |
| CGAGUGUAAGGAUAUUCGGCACCAGAGAACGAUCUGGCGUAGAAGAAGGUACAUGAGGAUCACCCAUGUGGUUA [Atonte] (puzzle: Exclusion 4) | 114 | – | – | – | – | – |
| UCACGGGAUUGAGGAUAUAUAUGAAUUUUUUUUAUAGAAGGCAAAAUGUUAGAUUAUUCACUAUACAUGAGGAUCACCCAUGUU [JR_ExcBG1_Sub075] (Eterna round: R96, puzzle: Exclusion NG 1) | – | – | – | – | – | 20.3 |
| UAUAUAUAGUAAGGAUAUGUAUUUAUUUUAUUAACAGAAGGUACUGACAUGAGGAUCACCCAUGUUUUAGUGUGGGCAUGUAGA [JMF's solution 25] (Eterna round: R96, puzzle: Exclusion NG 1) | – | – | – | – | – | 77.7 |
| AAAAGAAAACGAGGAUAUGCGCGUAACGUACAUCCUCUAGACAUGAGGAUCACCCAUGUAGCGCAGCAGAAGGCGUAAAAGAAA [Orises] (Eterna round: R96, puzzle: Exclusion NG 2) | – | – | – | 724 | 84.3 | 75 |
| GUGUAGUCAGGAUAUACAUAGGAAGAGAAGAGAAGAUAAGUACAUGAGGAUCACCCAUGUAGAAGGGACAGUGU [Excluse me!! 7 - Jieux - Exclusion 2] (puzzle: Exclusion 2) | 32.1 | – | – | – | – | – |
| ACAAGCUUUUUCAUAUCUAACAUGAGGAUCACCCAUGUUUAAGCAAUUAUGUUUGGGCUCUUUUGAGCUCGUCUUAU [JR_STOV1_Sub047] (Eterna round: R97, puzzle: Sensor, turn-off variant 1) | – | – | – | 13.8 | 12.3 | – |
| AAAUGACAUUAGGAUAUAUAACGCGGCUGCCGCAUAGAAGGGAUGACUUGAGGAUCACCCAAGUGACCCAAGGA [Arcere] (Eterna round: R97, puzzle: Exclusion 6) | – | – | – | 28.2 | 30.8 | – |
| GCACGGAGUGUAGGAUAUCUGUGCGAUUAGCUCAGAGAAGGACACAUGAGGAUCACCCAUGUGUUCCACGGAAACGUUCCGUGC [Eli exng1 - 049] (Eterna round: R96, puzzle: Exclusion NG 1) | – | – | – | 8.96 | 11.9 | 7.93 |
| CCCACGCACCAAGGAUAUGUUCCGCACAUGAGGAUCACCCAUGUGGCCAGCGAUUCUGUGUGAGAACAGAAGGUGGUUAUGUUA [Eternabot solution 41] (Eterna round: R96, puzzle: Exclusion NG 2) | – | – | – | 468 | 219 | 315 |
| GAUCGACAUGAGGAUCACCCAUGUCAGGAUAUCGUCACUGGAGCUUCGGCUCCAGUGACGAGAAGGGAUAUAAU [E1/16-A1] (Eterna round: R97, puzzle: Exclusion 1) | – | – | – | 26.3 | 36.1 | – |
| CUGAGCAGACGGAGAUCCAACAUGAGGAUCACCCAUGUCUCAAAAGCUUCUUGCUCGUCUUAUCCUCCUCUGUUCUC [Maeronqu] (puzzle: Sensor v3, turn-off variant 1) | 215 | 36.8 | 33.1 | – | – | – |
| ACAUGAGGAUCACCCAUGUGACAAUAAUGGCUGAUACAGAGACAGGAUAUACGUGAAUAUCUAACGUAGAAGGGUCAUGACUGG [Deportation 70 - Jieux - Exclusion NG 3] (Eterna round: R96, puzzle: Exclusion NG 3) | – | – | – | 30.5 | 41.9 | 35.8 |

Reference: the supplement of paper PMC9170038
